Assay results reported in the supplement of paper PMC10724198.
± gives the standard deviation of the averaged measurements.

Tested on: Saccharomyces cerevisiae
Test: protein stability index of tFT-peptide fusion (C-terminal peptide) (PSI (0-1 scale)); higher = more stable (slower turnover)
Settings: genetic background: wild type; temperature: 30 C
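Also: PSI is a weighted mean of sequencing reads over stability bins, variants kept only with over 10 reads, mCherry proximal and sfGFP distal, peptide attached via GGGS linker.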

RCRCPHFLCRFS
protein stability index: 0.6165 ± 0.0049

AFTPGTTVYVSQ
protein stability index: 0.699 ± 0.037

SRVPTSRARKRS
protein stability index: 0.7001 ± 0.0042

VSVFRFALGLQV
protein stability index: 0.563 ± 0.0058

SFLPHALPATAS
protein stability index: 0.682 ± 0.07

LTLCYGRLPPRL
protein stability index: 0.771 ± 0.022

IGLISTQYYWSL
protein stability index: 0.621 ± 0.043

YIQGAPGGLGYP
protein stability index: 0.713 ± 0.0077

IKGHLYDFPPGT
protein stability index: 0.792 ± 0.1

VLDVRLGGRCGE
protein stability index: 0.702 ± 0.072

PPLLPRLLTPTP
protein stability index: 0.671 ± 0.087

YLRACDPPAVHR
protein stability index: 0.67 ± 0.024

GHVPIWPFLSLS
protein stability index: 0.6664 ± 0.0042

STTPASLLGHVF
protein stability index: 0.6441 ± 0.0061

IDLLTRKVDLFN
protein stability index: 0.66 ± 0.055

SLRLFVPVYPPP
protein stability index: 0.576 ± 0.078

LSVSSLMFNWRS
protein stability index: 0.707 ± 0.02

PLLVLPGPLLTP
protein stability index: 0.668 ± 0.097

VVLFCPFISSED
protein stability index: 0.726 ± 0.012

ESRGLVRRLGTG
protein stability index: 0.693 ± 0.058

KKIKKRQSKENK
protein stability index: 0.704 ± 0.015

LAQLPPSLRFPP
protein stability index: 0.72 ± 0.1

SPPPTPPGLLLL
protein stability index: 0.694 ± 0.012

PLPPPAIPRLCA
protein stability index: 0.636 ± 0.029

AFGSVSLSCLWV
protein stability index: 0.676 ± 0.073

LTTFLLTRIVGA
protein stability index: 0.567 ± 0.035

GGGVATGGGGGG
protein stability index: 0.599 ± 0.029

VVGAALRDGPRE
protein stability index: 0.71 ± 0.012

GPRGWRASVWAG
protein stability index: 0.687 ± 0.07

PALPNNVQCDCE
protein stability index: 0.705 ± 0.073

EDCICPLNWFTA
protein stability index: 0.711 ± 0.013

CCSIVRSGAGDK
protein stability index: 0.748 ± 0.012

LASTMTIMLPGC
protein stability index: 0.703 ± 0.15

PPTPRLPPPRLP
protein stability index: 0.67 ± 0.045

IIDKQENNLKSE
protein stability index: 0.7513 ± 0.0011

RHYKNKGQTRVR
protein stability index: 0.699 ± 0.051

SWTGDGWMWRRR
protein stability index: 0.658 ± 0.019

SERKRMQRRVVY
protein stability index: 0.655 ± 0.021

KQWCFLKWGVNV
protein stability index: 0.558 ± 0.058

VSADGAGCAVRG
protein stability index: 0.709 ± 0.052

AGGLCEGGWRGR
protein stability index: 0.6885 ± 0.0035

GIPWSVLLSSYW
protein stability index: 0.713 ± 0.033

VRISGLSALPHF
protein stability index: 0.70793 ± 9.5e-05

RGRSLPIPHTFP
protein stability index: 0.714 ± 0.085

FRVKVFGLPFWL
protein stability index: 0.509 ± 0.028

GDHGSYAGPALL
protein stability index: 0.673 ± 0.047

LFAKVVSGYDLG
protein stability index: 0.711 ± 0.024

YLGWLYQKCGTV
protein stability index: 0.639 ± 0.056

KKEEKKRRKPQR
protein stability index: 0.626 ± 0.039

FRPPVPPPPVLP
protein stability index: 0.683 ± 0.012

WSSSPAFKPSRR
protein stability index: 0.655 ± 0.098

VAAKAHPLASMS
protein stability index: 0.617 ± 0.11

LPPTPSSRGPHS
protein stability index: 0.669 ± 0.019

PPAPPSQPINAT
protein stability index: 0.709 ± 0.053

NPPPPAHYSRPP
protein stability index: 0.73 ± 0.031

SCFRTLPGRWPF
protein stability index: 0.793 ± 0.022

LIPRCLIPVTRY
protein stability index: 0.655 ± 0.018

TLSPPPLSPSAP
protein stability index: 0.711 ± 0.013

NKYRKNMKSSVP
protein stability index: 0.671 ± 0.019

PRCRSLPPLRVL
protein stability index: 0.6975 ± 0.0037

PLPPPPTPPSLS
protein stability index: 0.716 ± 0.046

AACSCGCLTGVG
protein stability index: 0.527 ± 0.012

VVVGQGPLRGGA
protein stability index: 0.714 ± 0.021

LPSPTTNLFKPN
protein stability index: 0.711 ± 0.0091

RGMGPGAFVSGQ
protein stability index: 0.677 ± 0.077

TSSPVFPFPPTP
protein stability index: 0.745 ± 0.042

PSPSPPPPPPGL
protein stability index: 0.681 ± 0.064

FPVSPFPPPPSS
protein stability index: 0.742 ± 0.16

GLESVGRVSLRG
protein stability index: 0.657 ± 0.0094

PSPPPPAPRPPP
protein stability index: 0.657 ± 0.03

SSLLSLAFFAPS
protein stability index: 0.7147 ± 0.0056

PSEAPEAPLPRP
protein stability index: 0.731 ± 0.082

RGGFVEGFVLVR
protein stability index: 0.611 ± 0.073

SLFRSSHPPRPP
protein stability index: 0.605 ± 0.034

SLRICGAFPRTF
protein stability index: 0.705 ± 0.0092

FASSSDSLWRGI
protein stability index: 0.679 ± 0.014

FPHPSPPPFPPP
protein stability index: 0.698 ± 0.026

YSIKSTVTYSVH
protein stability index: 0.574 ± 0.066

HRCRVGGSRFEK
protein stability index: 0.671 ± 0.036

HSIPWTRTRPGC
protein stability index: 0.687 ± 0.016

LMGASAAFIKKG
protein stability index: 0.601 ± 0.067

EKKRRKKGEKRR
protein stability index: 0.712 ± 0.17

PAFPPPLPRRFL
protein stability index: 0.693 ± 0.23

EKKEVSLVKKGR
protein stability index: 0.695 ± 0.039

KKYNRNRIKKAR
protein stability index: 0.7 ± 0.08

PESPNCRRTRAL
protein stability index: 0.661 ± 0.031

NRLVRLSQGGRE
protein stability index: 0.668 ± 0.019

PPPQGSQPSTLS
protein stability index: 0.739 ± 0.051

PHNSARSLPLHF
protein stability index: 0.717 ± 0.052

PPRPPGFPPALF
protein stability index: 0.697 ± 0.018

STEIHIKLNAWT
protein stability index: 0.687 ± 0.082

HLVYRRGLEVTF
protein stability index: 0.615 ± 0.061

GQRRDSSSEVWG
protein stability index: 0.67 ± 0.017

PGTRNATPRRQP
protein stability index: 0.707 ± 0.04

GTLPLGVRGGLK
protein stability index: 0.657 ± 0.081

KKTDKSNKVKRI
protein stability index: 0.669 ± 0.013

RGRLCRESGSRS
protein stability index: 0.711 ± 0.033

PLSSILSPSSPA
protein stability index: 0.729 ± 0.052

ILEGFRHVSPVG
protein stability index: 0.717 ± 0.085

CLMGTIETRLRC
protein stability index: 0.637 ± 0.049

SPCLLPPPRSSP
protein stability index: 0.737 ± 0.027
